Experimental data taken from patent publication US20130302270A1.

Experiments:
[1] = target: MUC16 (CA125), membrane-bound, on tumor cells (human) (UniProt Q8WXI7)
[2] = target: MUC16 (CA125), membrane-bound, on tumor cells (human) (UniProt Q8WXI7); assay: flow cytometry on MUC16-positive OVCAR3 cells, anti-FLAG detection

soluble mesothelin (Meso), secreted FLAG-tagged form of human mesothelin (from UniProt Q13421) (ligand)
reduction of Meso-TR3 killing of OVCAR3 cells by soluble mesothelin (% cell killing) [1]: 40 | percent of cells positive for the FLAG epitope tag [2]: 100%
